B1: Cytochrome c-551, P00099 (parent)
chain: MKPYALLSLLATGTLLAQGAWAEDPEVLFKNKGCVACHAIDTKMVGPAYKDVAAKFAGQAGAEAELAQRIKNGSQGVWGPIPMPPNAVSDDEAQTLAKWVLSQK

Variants of: B1
Conditions: Pseudomonas aeruginosa (strain ATCC 15692 / DSM 22644 / CIP 104116 / JCM 14847 / LMG 12228 / 1C / PRS 101 / PAO1); pH 7; 10 °C; Urea; Fluorescence; sodium phosphate 50 mM; reversible: yes; structure 451C; whole UniProt chain shown

Variant | ddG of mutation (higher = less stable) [kcal/mol] | denaturant m value [kcal/mol/M] | denaturant midpoint (higher = more stable) [M] | unfolding free energy [kcal/mol]
MKPYALLSLLATGTLLAQGAWAEDPEVLFKNKGCVACHAIDTKMVGPAYKDVAAKFAGQAGAEAELAQRIKNGSQGVFGPIPMPPNAVSDDEAQTLAKWVLSQK [W78F] | 1.9 | 1.1 | 4.6 | 5.2
MKPYALLSLLATGTLLAQGAWAEDPEVLFKNKGCVACHAIDTKMVGPAYKDVAAKFAGQAGAEAELAQRIKNGSQGVWGPIPMPPNAVSDDEAQTLAKFVLSQK [W99F] | 1.2 | 1 | 5.6 | 5.9
MKPYALLSLLATGTLLAQGAWAEDPEVLFKNKGCVACHAIDTKMVGPAYKDVAAKFAGQAGAEAELAQRIKNGSQGVWGPIPMPPNAVSDDVAQTLAKWVLSQK [E92V] | 2 | 1.2 | 4.3 | 5.1
MKPYALLSLLATGTLLAQGAWAEDPEVLFKNKGCVACHAIDTKMVGPAYKDVAAKFAGQAGAEAELAQRIKNGSQGVWGPIPMPPNAVSDDQAQTLAKWVLSQK [E92Q] | 0.9 | 1.1 | 5.7 | 6.2
